According to US20120077957A1 (PALATIN TECHNOLOGIES, published 2012):
Read-outs that look alike come from different tables or passages of the source. Numbered stars: 1 amine (or outer) side, 2 acyl side, 3 side chain; on linkers, the order of the positions; unused ones are H or OH. Bridge positions count the residues as written; N and C are the ends. Square brackets hold non-standard residues; d marks the D form. * marks the point of attachment. Ser(Bzl) = O-benzyl-serine, O=C([C@H](COCc1ccccc1)N[*:1])[*:2]; Nle = CCCC[C@H](N)C(=O)O; Orn = NCCC[C@H](N)C(=O)O; Dab = NCC[C@H](N)C(=O)O; Bn = c1ccc(C*)cc1

Legend:
[1] = target: T1, human melanocortin-4 receptor (recombinant hMC4-R) (human, UniProt P32245 1-332); assay: competition with labelled NDP-α-MSH ([I125] or Eu), hMC4-R HEK-293 membranes
T1 construct: whole, on cells; Ki assays used membrane homogenates of HEK-293 cells expressing recombinant hMC4-R; cAMP assays used HEK-293 T-REx cells induced with 0.1 ng/mL doxycycline; also called human MC4-R; MC4 receptor
Method: (§1) After incubation for 60 minutes at 37° C., the assay mixture was filtered and the membranes washed three times with ice-cold buffer. Filters were dried and counted in a gamma counter for bound radioactivity. […] Maximal specific binding (100%) was defined as the difference in radioactivity (cpm) bound to cell membranes in the absence and presence of 1 μM NDP-α-MSH. […] Ki values for test peptides of the present invention were determined using Graph-Pad Prism® curve-fitting software.
(§2) After incubation for 90 minutes at 37° C., the reaction was stopped by filtration over AcroWell 96-well filter plates (Pall Life Sciences). The filter plates were washed 4 times with 200 μL of ice-cold phosphate-buffered saline. DELFIA Enhancement solution (PerkinElmer Life Sciences) was added to each well. The plates were incubated on a shaker for 15 minutes and read at 340 nm excitation and 615 nm emission wavelengths. Each assay was conducted in duplicate and mean values were utilized. Ki values were determined by curve-fitting with Graph-Pad Prism® software using a one-site fixed-slope competition binding model.

[2] = target: T1, human melanocortin-4 receptor …; assay: cell-based or functional assay
[3] = target: T1, human melanocortin-4 receptor …; assay: cell-based or functional assay; remark: listed apart in the source
[4] = target: T1, human melanocortin-4 receptor …; assay: competition with labelled NDP-α-MSH ([I125] or Eu), hMC4-R HEK-293 membranes; remark: listed apart in the source
Method: as §1, §2

T1 sequence (P32245 whole entry): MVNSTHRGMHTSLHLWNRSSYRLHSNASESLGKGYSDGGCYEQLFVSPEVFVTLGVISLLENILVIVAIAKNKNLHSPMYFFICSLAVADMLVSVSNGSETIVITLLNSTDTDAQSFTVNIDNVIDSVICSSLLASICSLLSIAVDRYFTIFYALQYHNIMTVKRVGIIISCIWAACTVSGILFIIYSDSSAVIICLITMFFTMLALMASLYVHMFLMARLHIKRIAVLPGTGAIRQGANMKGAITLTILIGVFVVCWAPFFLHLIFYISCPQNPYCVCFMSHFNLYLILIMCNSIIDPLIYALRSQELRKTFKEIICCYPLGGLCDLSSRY

B1: Asp...Lys analog of peptide No. 40: Ac-Lys-cyclo(Asp-His-D-Phe-Arg-Trp-Lys)-NH2 (peptide)
peptide: Ac-KDH[dF]RWK-NH2
modifications: lactam 2-7
SMILES: CC(=O)N[C@@H](CCCCN)C(=O)N[C@H]1CC(=O)NCCCC[C@@H](C(N)=O)NC(=O)[C@H](Cc2c[nH]c3ccccc23)NC(=O)[C@H](CCCNC(=N)N)NC(=O)[C@@H](Cc2ccccc2)NC(=O)[C@H](Cc2c[nH]cn2)NC1=O
notes: also called Peptide Structure (Asp...Lys) in the row of No. 40
Ki [1]: 9 nM
Ec50 (nM), cAMP [2]: 5 nM
Emax (%), cAMP [2]: 85%

B2: Asp...Lys analog of peptide No. 41: Ac-Arg-cyclo(Asp-Ala-D-Phe-Arg-Trp-Lys)-NH2 (peptide)
peptide: Ac-RDA[dF]RWK-NH2
modifications: lactam 2-7
notes: also called Peptide Structure (Asp...Lys) in the row of No. 41
Ki [1]: 19 nM
Ec50 (nM), cAMP [2]: 37 nM
Emax (%), cAMP [2]: 74%

B3: Asp...Lys analog of peptide No. 45: Ac-D-Arg-cyclo(Asp-Gln-D-Phe-Arg-Trp-Lys)-NH2 (peptide)
peptide: Ac-[dR]DQ[dF]RWK-NH2
modifications: lactam 2-7
notes: also called Peptide Structure (Asp...Lys) in the row of No. 45
Ki [1]: 45 nM
Emax (%), cAMP [2]: 89%

B4: Asp...Lys analog of peptide No. 47: Ac-Arg-cyclo(Asp-Pro-D-Phe-Arg-Trp-Lys)-NH2 (peptide)
peptide: Ac-RDP[dF]RWK-NH2
modifications: lactam 2-7
notes: also called Peptide Structure (Asp...Lys) in the row of No. 47
Ki [1]: 17 nM
Ec50 (nM), cAMP [2]: 9 nM
Emax (%), cAMP [2]: 43%

B5: Asp...Lys analog of peptides No. 17 and No. 48: Ac-Arg-cyclo(Asp-Ser(Bzl)-D-Phe-Arg-Trp-Lys)-OH (peptide)
peptide: Ac-RD[Ser(Bzl)][dF]RWK-OH
modifications: lactam 2-7
notes: also called Peptide Structure (Asp...Lys) in the rows of No. 17 and No. 48
Ec50 (nM), cAMP [3]: 5 nM
Emax (%), cAMP [3]: 38%
Ki [1]: 9 nM
Ec50 (nM), cAMP [2]: 5 nM
Emax (%), cAMP [2]: 38%
Ki [4]: 9 nM

B6: Asp...Lys analog of peptides No. 34 and No. 46: Ac-Arg-cyclo(Asp-Asn-D-Phe-Arg-Trp-Lys)-NH2 (peptide)
peptide: Ac-RDN[dF]RWK-NH2
modifications: lactam 2-7
SMILES: CC(=O)N[C@@H](CCCNC(=N)N)C(=O)N[C@H]1CC(=O)NCCCC[C@@H](C(N)=O)NC(=O)[C@H](Cc2c[nH]c3ccccc23)NC(=O)[C@H](CCCNC(=N)N)NC(=O)[C@@H](Cc2ccccc2)NC(=O)[C@H](CC(N)=O)NC1=O
notes: also called Peptide Structure (Asp...Lys) in the rows of No. 34 and No. 46
Ec50 (nM), cAMP [3]: 42 nM
Emax (%), cAMP [3]: 91%
Ki [1]: 32 nM
Ec50 (nM), cAMP [2]: 42 nM
Emax (%), cAMP [2]: 91%
Ki [4]: 32 nM

Ac-[Nle][Orn]H[dF]RWE-OH (lactam 2-7) [Peptide No. 35: Ac-Nle-cyclo(Orn-His-D-Phe-Arg-Trp-Glu)-OH]
Ki [1]: 1 nM
Emax (%), cAMP [2]: 97%

Ac-[Nle][Orn]H[dF]RWE-NH2 (lactam 2-7) [Peptide No. 36: Ac-Nle-cyclo(Orn-His-D-Phe-Arg-Trp-Glu)-NH2]
Ki [1]: 0.2 nM
Ec50 (nM), cAMP [2]: 0.2 nM
Emax (%), cAMP [2]: 85%

Ac-R[Orn]H[dF]RWE-OH (lactam 2-7) [Peptide No. 37: Ac-Arg-cyclo(Orn-His-D-Phe-Arg-Trp-Glu)-OH]
Ki [1]: 12 nM
Ec50 (nM), cAMP [2]: 0.6 nM
Emax (%), cAMP [2]: 88%

Ac-K[Orn]H[dF]RWE-NH2 (lactam 2-7) [Peptide No. 40: Ac-Lys-cyclo(Orn-His-D-Phe-Arg-Trp-Glu)-NH2]
Ki [1]: 3 nM
Ec50 (nM), cAMP [2]: 0.2 nM
Emax (%), cAMP [2]: 114%

B7: Peptide No. 41: Ac-Arg-cyclo(Orn-Ala-D-Phe-Arg-Trp-Glu)-NH2 (peptide)
peptide: Ac-R[Orn]A[dF]RWE-NH2
modifications: lactam 2-7
SMILES: CC(=O)N[C@@H](CCCNC(=N)N)C(=O)N[C@H]1CCCNC(=O)CC[C@@H](C(N)=O)NC(=O)[C@H](Cc2c[nH]c3ccccc23)NC(=O)[C@H](CCCNC(=N)N)NC(=O)[C@@H](Cc2ccccc2)NC(=O)[C@H](C)NC1=O
Ki [1]: 19 nM
Ec50 (nM), cAMP [2]: 7 nM
Emax (%), cAMP [2]: 52%

Ac-R[Orn]P[dF]RWE-NH2 (lactam 2-7) [Peptide No. 47: Ac-Arg-cyclo(Orn-Pro-D-Phe-Arg-Trp-Glu)-NH2]
Ki [1]: 5 nM
Ec50 (nM), cAMP [2]: 6 nM
Emax (%), cAMP [2]: 54%

Ac-R[Orn]S(Bn)[dF]RWE-OH (lactam 2-7) [Peptide No. 48: Ac-Arg-cyclo(Orn-Ser(Bzl)-D-Phe-Arg-Trp-Glu)-OH]
Ki [1]: 5 nM
Ec50 (nM), cAMP [2]: 3 nM
Emax (%), cAMP [2]: 50%

Ac-R[Orn]H[dF]RWE-NH2 (lactam 2-7) [Peptide No. 38: Ac-Arg-cyclo(Orn-His-D-Phe-Arg-Trp-Glu)-NH2]
Ki [1]: 1 nM
Ec50 (nM), cAMP [2]: 1 nM
Emax (%), cAMP [2]: 84%

Ac-[dR][Orn]H[dF]RWE-NH2 (lactam 2-7) [Peptide No. 39: Ac-D-Arg-cyclo(Orn-His-D-Phe-Arg-Trp-Glu)-NH2]
Ki [1]: 4 nM
Ec50 (nM), cAMP [2]: 0.2 nM
Emax (%), cAMP [2]: 103%

Ac-R[Orn][Dab][dF]RWE-NH2 (lactam 2-7) [Peptide No. 43: Ac-Arg-cyclo(Orn-Dab-D-Phe-Arg-Trp-Glu)-NH2]
Ki [1]: 3 nM
Ec50 (nM), cAMP [2]: 0.1 nM
Emax (%), cAMP [2]: 103%

Ac-RE[Orn](Ac)[dF]RW[Orn]-NH2 (lactam 2-7) [Peptide No. 33: Ac-Arg-cyclo(Glu-Orn(Acetyl)-D-Phe-Arg-Trp-Orn)-NH2]
Ec50 (nM), cAMP [3]: 3 nM
Emax (%), cAMP [3]: 90%
Ki [4]: 7 nM

B8: Peptide No. 21: Ac-cyclo(Glu-Gln-D-Phe-Arg-Trp-Orn)-NH2 (peptide)
peptide: Ac-EQ[dF]RW[Orn]-NH2
modifications: lactam 1-6
SMILES: CC(=O)N[C@H]1CCC(=O)NCCC[C@@H](C(N)=O)NC(=O)[C@H](Cc2c[nH]c3ccccc23)NC(=O)[C@H](CCCNC(=N)N)NC(=O)[C@@H](Cc2ccccc2)NC(=O)[C@H](CCC(N)=O)NC1=O
Ec50 (nM), cAMP [3]: 26 nM
Emax (%), cAMP [3]: 49%
Ki [4]: 74 nM
